Measurements taken from article PMC2192122.

The molecules below were run against MHC class II molecule I-Ad (mouse (endogenous in A20 lymphoma cells)) (assay: radioligand binding). Details: not given.

| IC50 [nM] | Molecule |
| --- | --- |
| 131 | OVA peptide 323-339 (unlabeled) (from UniProt P01012 324-340) |

Same assay, conditions: scale: relative to unlabeled OVA peptide 323-339

| Molecule | relative binding to MHC |
| --- | --- |
| SWM peptide 105-116-[G108] (from UniProt P02185 106-117) | 0.1 |
| EFISEAIIHILH [SWM peptide 105-116-[I114]] | 0.01 |
| EFGSEAIIHVLH [SWM peptide 105-116-[G107]] | 0.34 |
| YLEFIGEAIIHV [SWM peptide 103-114-[G108]] | 0.04 |
| EFISEAIIHLLH [SWM peptide 105-116-[L114]] | 0.18 |
| KYLEFIGEAIIH [SWM peptide 102-113-[G108]] | 0.011 |
| IKYLEFIGEAII [SWM peptide 101-112-[G108]] | 0.003 |
| LEFIGEAIIHVL [SWM peptide 104-115-[G108]] | 0.013 |

Results, then the molecule that gave them:

| relative binding to MHC | Molecule |
| --- | --- |
| 0.59 | AIIHVLHSRHPG [sperm whale myoglobin (SWM) peptide 110-121] |
| 1.5 | EFISEAIIHVLH [sperm whale myoglobin (SWM) peptide 105-116] |
| 1.8 | EFISEAIIPVLH [SWM peptide 105-116-[P113]] |
